Here are results for 15 molecules from patent US20230250148A1 (published 2023).

Substitutions are numbered along the chain they refer to. Where two headings read alike, the source gives them in different places.

In assay [1] the target is T1, human insulin receptor (IR) on human IM-9 cells (human, UniProt P06213 28-1382).
T1 construct: whole, on cells; also called human IR
Nature of the assay: competition with biotinylated RHI on IM-9 cells, flow cytometry, 4 C. As for the experimental part:
(§1) 40 µL of an IM-9 cell suspension (8×10⁶ cells/mL) was then added to each well by multichannel pipette, mixed again gently and incubated on ice for 30 min to allow competitive binding on the IR on IM-9 cells. Cells were then washed twice with 275µL of ice-cold FACS wash buffer (HBSS/2mM EDTA/0.1% Na-azide + 0.5% horse serum) by centrifuging the V-bottom plate at 3000 rpm for 3 min and aspirating the supernatant. Cells were then resuspended in 40µL of FACS staining medium containing 1:100 diluted Streptavidin-PE (Life Technologies) for 20 min on ice. Cells were then washed once with 275 µL of ice-cold FACS buffer and finally fixed with 3% paraformaldehyde for 10 min at room temp. Cells were then washed once with 275 µL of ice-cold FACS buffer and resuspended in 250µl of FACS buffer for analysis.
(§2) The insulin-Fc fusion proteins were manufactured in HEK293 cells according to Example 1 and purified using a Protein A column according to Example 4. Their structures were confirmed according to Example 6 by non-reducing and reducing CE-SDS, and the sequences were further identified by LC-MS with glycan removal according to Example 8. Their %homodimer content was measured by size-exclusion chromatography according to Example 10, and their insulin receptor binding affinities were measured according to Example 12.
In general terms: Flow cytometry measures light scatter and fluorescence of single cells or particles in a stream.

Assay [2] concerns the target T1, human insulin receptor (IR) on human …. The description is as above. Here is the method:
as §1, §2
The source holds these as a separate data set.

Assay [3] shares this target. The description is as above. Here is the method: as §1, §2
The source holds these as a separate data set.

The target in assay [4] is T2, biotinylated recombinant human Fc(gamma)RI (human, UniProt P12314 16-288, biotinylated, site not stated).
T2 construct: Bought reagent; construct not described; also called rhFc(gamma)RI; Fc(gamma) receptor I
T2 sequence (P12314 16-288 limits assumed): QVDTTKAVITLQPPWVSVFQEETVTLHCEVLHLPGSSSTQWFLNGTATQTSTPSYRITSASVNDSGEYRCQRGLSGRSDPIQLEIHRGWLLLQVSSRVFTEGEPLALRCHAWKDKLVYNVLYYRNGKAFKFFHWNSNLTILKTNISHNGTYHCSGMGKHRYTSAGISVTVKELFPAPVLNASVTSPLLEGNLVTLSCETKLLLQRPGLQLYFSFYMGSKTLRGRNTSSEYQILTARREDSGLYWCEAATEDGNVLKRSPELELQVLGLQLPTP
Briefly: ELISA, fusion protein coated, biotinylated rhFc(gamma)RI at 3000 ng/mL. As for the experimental part: (§3) The binding of insulin-Fc fusion proteins to the Fc(gamma)RI at pH 7.4 is conducted using an ELISA assay as follows using human Fc(gamma)RI (i.e., rhFc(gamma)RI). Insulin-Fc fusion proteins are diluted to 10 µg/mL in sodium bicarbonate buffer at pH 9.6 and coated on Maxisorp (Nunc) microtiter plates overnight at 4° C., after which the microplate strips are washed 5 times with PBST (PBS/0.05% Tween-20) buffer and blocked with Superblock blocking reagent (ThermoFisher). Serial dilutions of biotinylated rhFc(gamma)RI (recombinant human Fc(gamma)RI; R&D Systems) are prepared in PBST/10% Superblock buffer from 3000 ng/mL to 4.1 ng/mL and loaded at 100 µL/well onto the microplate strips coated with insulin-Fc fusion protein. The microtiter plate is incubated for 1 hour at room temperature after which time the microplate strips are washed 5 times with PBST and then loaded with 100 µL/well of streptavidin-HRP diluted 1:10000 in PBST/10% Superblock buffer. After incubating for 45 min, the microplate strips are washed again 5 times with PBST. TMB is added to reveal the bound Fc(gamma)RI proteins and is stopped with ELISA stop reagent (Boston Bioproducts). The plate is read in an ELISA plate reader at 450 nm, and the OD450 values (proportional to the binding of rhFc(gamma)RI to insulin-Fc protein) are plotted against log concentrations of rhFc(gamma)RI added to each well to generate binding curves using GraphPad Prism software. For groupings of compounds with somewhat similar curves, the OD450 at one of the higher concentrations, for instance at rhFc(gamma)RI concentrations of 3000 ng/mL, can be used to identify differences between coated insulin-Fc fusion protein compounds. […]
Finally, select compounds were tested for their likelihood to interact with the immune system by measuring their Fc(gamma) receptor binding activity according to the procedure of Example 15.
Background: An ELISA detects its analyte on a solid surface through an enzyme-linked reagent.

In assay [5] the target is T2, biotinylated recombinant human …. Nature of the assay: ELISA, fusion protein coated, biotinylated rhFc(gamma)RI in solution. Here is the method:
as §3

Assay [6] deals with T1, human insulin receptor (IR) on human …. Briefly: competition with biotinylated RHI on IM-9 cells, flow cytometry, 4 C. Here is the method:
as §1
The lack of in vivo potency for the insulin-Fc fusion protein of SEQ ID NO: 43 correlates with its high IC50 (shown in Table 9 below) as measured by the insulin receptor binding assay according to the method of Example 12.
This is another data set of the same source.

T1 sequence (P06213 28-1382): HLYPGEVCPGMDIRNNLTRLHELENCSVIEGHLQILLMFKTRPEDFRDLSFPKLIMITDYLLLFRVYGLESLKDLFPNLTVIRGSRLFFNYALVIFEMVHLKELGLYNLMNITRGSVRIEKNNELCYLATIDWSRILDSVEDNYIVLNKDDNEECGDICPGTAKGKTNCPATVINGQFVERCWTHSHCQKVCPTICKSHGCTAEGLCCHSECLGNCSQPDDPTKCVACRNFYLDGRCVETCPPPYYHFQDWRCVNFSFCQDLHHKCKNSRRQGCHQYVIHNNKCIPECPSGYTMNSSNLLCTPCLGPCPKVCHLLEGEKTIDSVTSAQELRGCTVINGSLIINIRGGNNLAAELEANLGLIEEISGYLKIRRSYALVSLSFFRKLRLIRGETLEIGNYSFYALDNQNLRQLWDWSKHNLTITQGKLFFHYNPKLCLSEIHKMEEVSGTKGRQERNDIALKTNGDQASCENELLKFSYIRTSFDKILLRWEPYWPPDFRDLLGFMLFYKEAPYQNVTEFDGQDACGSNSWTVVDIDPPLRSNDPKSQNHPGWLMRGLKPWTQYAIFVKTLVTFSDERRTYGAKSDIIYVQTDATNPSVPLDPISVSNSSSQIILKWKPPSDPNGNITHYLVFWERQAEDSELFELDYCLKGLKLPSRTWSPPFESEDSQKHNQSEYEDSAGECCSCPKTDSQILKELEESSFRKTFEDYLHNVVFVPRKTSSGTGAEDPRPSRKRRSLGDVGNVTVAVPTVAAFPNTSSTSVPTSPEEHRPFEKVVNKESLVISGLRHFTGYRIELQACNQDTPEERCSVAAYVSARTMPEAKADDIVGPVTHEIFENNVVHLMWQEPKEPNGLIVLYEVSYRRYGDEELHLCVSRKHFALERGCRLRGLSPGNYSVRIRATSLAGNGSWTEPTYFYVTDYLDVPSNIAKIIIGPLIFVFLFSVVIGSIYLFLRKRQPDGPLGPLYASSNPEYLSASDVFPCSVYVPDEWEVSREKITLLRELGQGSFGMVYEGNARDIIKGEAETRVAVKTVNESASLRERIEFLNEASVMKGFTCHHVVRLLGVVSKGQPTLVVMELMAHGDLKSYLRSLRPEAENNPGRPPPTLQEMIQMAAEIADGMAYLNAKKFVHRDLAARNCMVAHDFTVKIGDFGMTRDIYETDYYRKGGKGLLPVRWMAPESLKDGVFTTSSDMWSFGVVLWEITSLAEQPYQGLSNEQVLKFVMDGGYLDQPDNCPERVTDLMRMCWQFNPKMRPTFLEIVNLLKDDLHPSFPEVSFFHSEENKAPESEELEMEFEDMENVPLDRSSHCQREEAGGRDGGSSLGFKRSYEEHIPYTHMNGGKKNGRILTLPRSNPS

B1: insulin-Fc fusion protein of SEQ ID NO: 51 (Fc fusion)
chain: FVNQHLCGSHLVEALALVCGERGFFYTDPGGGGGGGGGIVEQCCTSICSLYQLENYCGGGGAGGGGDCPKCPAPEMLGGPSVFIFPPKPKDTLLIARTPEVTCVVVDLDPEDPEVQISWFVDGKQMQTAKTQPREEQFSGTYRVVSVLPIGHQDWLKGKQFTCKVNNKALPSPIERTISKARGQAHQPSVYVLPPSREELSKNTVSLTCLIKDFFPPDIDVEWQSNGQQEPESKYRTTPPQLDEDGSYFLYSKLSVDKSRWQRGDTFICAVMHEALHNHYTQESLSHSPG
In the case of B1, the IC50 (in general, the midpoint of a concentration-inhibition curve) in assay [1] was determined as 1920 nM.

B2: insulin-Fc fusion protein of SEQ ID NO: 55 (Fc fusion)
chain: FVNQHLCGSHLVEALELVCGERGFFYTPKTGGSGGGGGIVEQCCTSTCSLDQLENYCGGGGGQGGGGQGGGGQGGGGGDCPKCPAPEMLGGPSVFIFPPKPKDTLLIARTPEVTCVVVDLDPEDPEVQISWFVDGKQMQTAKTQPREEQFNGTYRVVSVLPIGHQDWLKGKQFTCKVNNKALPSPIERTISKARGQAHQPSVYVLPPSREELSKNTVSLTCLIKDFFPPDIDVEWQSNGQQEPESKYRTTPPQLDEDGSYFLYSKLSVDKSRWQRGDTFICAVMHEALHNHYTQESLSHSPG
Molecule B2 gave an IC50 in assay [2] of 3870 nM.

B3: insulin-Fc fusion protein of SEQ ID NO: 62 (Fc fusion)
chain: B2 chain with F25H, T27G, P28G, K29G, T30G, N151S
notes: 71% homodimer
Take B3: the IC50 in assay [3] was determined as 2300 nM. Moreover, in assay [4], the OD450nm came to 0.175, the “OD450nm minus assay background” value stood at 0.118 and the “ratio to SEQ ID NO: 36” value is 0.32.

B4: insulin-Fc fusion protein of SEQ ID NO: 57 (Fc fusion)
chain: B2 chain with T27G, P28G, K29G, T30G
In assay [2], B4 gave an IC50 of 2040 nM.

B5: insulin-Fc fusion protein of SEQ ID NO: 61 (Fc fusion)
chain: B2 chain with F25H, T27G, P28G, K29G, T30G, D119A, N151S
notes: 73% homodimer
For B5, the IC50 in assay [3] is 3090 nM. In addition, in assay [4], the OD450nm was determined as 0.166, the “OD450nm minus assay background” value turned out to be 0.109 and the “ratio to SEQ ID NO: 36” value was determined as 0.29.

B6: insulin-Fc fusion protein of SEQ ID NO: 42 (Fc fusion)
chain: FVNQHLCGSDLVEALALVCGERGFFYTDPTGGGPRRGIVEQCCHSICSLYQLENYCNGGGGAGGGGDCPKCPAPEMLGGPSVFIFPPKPKDTLLIARTPEVTCVVVDLDPEDPEVQISWFVDGKQMQTAKTQPREEQFKGTYRVVSVLPIGHQDWLKGKQFTCKVNNKALPSPIERTISKARGQAHQPSVYVLPPSREELSKNTVSLTCLIKDFFPPDIDVEWQSNGQQEPESKYRTTPPQLDEDGSYFLYSKLSVDKSRWQRGDTFICAVMHEALHNHYTQESLSHSPG
notes: non-glycosylated
For the molecule B6, in assay [5], the OD450nm came out at 0.126, the “OD450nm minus assay background” value is 0.063 and the “ratio to SEQ ID NO: 36” value worked out at 0.2.

B7: insulin-Fc fusion protein of SEQ ID NO: 49 (Fc fusion)
chain: FVNQHLCGSHLVQALYLVCGERGFFYTDPTQRGGGGGQRGIVEQCCTSICSLYQLENYCGGGGAGGGGDCPKCPAPEMLGGPSVFIFPPKPKDTLLIARTPEVTCVVVDLDPEDPEVQISWFVDGKQMQTAKTQPREEQFSGTYRVVSVLPIGHQDWLKGKQFTCKVNNKALPSPIERTISKARGQAHQPSVYVLPPSREELSKNTVSLTCLIKDFFPPDIDVEWQSNGQQEPESKYRTTPPQLDEDGSYFLYSKLSVDKSRWQRGDTFICAVMHEALHNHYTQESLSHSPG
On to B7, for which the half-inhibitory concentration (IC50) in assay [2] is 4180 nM. This counts as single-digit micromolar.

B8: insulin-Fc fusion protein of SEQ ID NO: 50 (Fc fusion)
chain: FVNQHLCGSHLVEALALVCGERGFFYTDPTGGGGGGSGGGGGIVEQCCTSICSLYQLENYCGGGGAGGGGDCPKCPAPEMLGGPSVFIFPPKPKDTLLIARTPEVTCVVVDLDPEDPEVQISWFVDGKQMQTAKTQPREEQFSGTYRVVSVLPIGHQDWLKGKQFTCKVNNKALPSPIERTISKARGQAHQPSVYVLPPSREELSKNTVSLTCLIKDFFPPDIDVEWQSNGQQEPESKYRTTPPQLDEDGSYFLYSKLSVDKSRWQRGDTFICAVMHEALHNHYTQESLSHSPG
For B8, the half-inhibitory concentration (IC50) in assay [2] worked out at 1610 nM.

B9: insulin-Fc fusion protein of SEQ ID NO: 56 (Fc fusion)
chain: FVNQHLCGSHLVEALELVCGERGFHYGGGGGGSGGGGGIVEQCCTSTCSLDQLENYCNHGGGGQGGGGQGGGGQGGGGGDCPKCPAPEMLGGPSVFIFPPKPKDTLLIARTPEVTCVVVDLDPEDPEVQISWFVDGKQMQTAKTQPREEQFNGTYRVVSVLPIGHQDWLKGKQFTCKVNNKALPSPIERTISKARGQAHQPSVYVLPPSREELSKNTVSLTCLIKDFFPPDIDVEWQSNGQQEPESKYRTTPPQLDEDGSYFLYSKLSVDKSRWQRGDTFICAVMHEALHNHYTQESLSHSPG
notes: Combined variant, canine IgGB Fc with native cNg
The molecule B9 registered an IC50 in assay [2] of 554 nM.

B10: insulin-Fc fusion protein of SEQ ID NO: 28 (Fc fusion)
chain: B9 chain with H59G
In assay [2], B10 registered an IC50 of 1250 nM. Compared with the last molecule, the IC50 is about 2.3-fold higher.

B11: insulin-Fc fusion protein of SEQ ID NO: 44 (Fc fusion)
chain: FVNQHLCGSHLVQALYLVCGERGFFYTDPTGGGPRRGIVEQCCTSICSLYQLENYCGGGGAGGGGDCPKCPAPEMLGGPSVFIFPPKPKDTLLIARTPEVTCVVVDLDPEDPEVQISWFVDGKQMQTAKTQPREEQFSGTYRVVSVLPIGHQDWLKGKQFTCKVNNKALPSPIERTISKARGQAHQPSVYVLPPSREELSKNTVSLTCLIKDFFPPDIDVEWQSNGQQEPESKYRTTPPQLDEDGSYFLYSKLSVDKSRWQRGDTFICAVMHEALHNHYTQESLSHSPG
On to B11, for which, in assay [6], the IC50 stood at 2620 nM.

B12: insulin-Fc fusion protein of SEQ ID NO: 45 (Fc fusion)
chain: B11 chain with H10E, Q13E, Y16A
Consider B12, for which the IC50 in assay [6] amounted to 633 nM.

B13: insulin-Fc fusion protein of SEQ ID NO: 47 (Fc fusion)
chain: B11 chain with Q13E, Y16A, F25Y
B13 displayed an IC50 in assay [6] of 2400 nM.

B14: insulin-Fc fusion protein of SEQ ID NO: 54 (Fc fusion)
chain: B11 chain with Q13E, Y16A, D28Q, P29G, T30G, P34G, R35G, R36G
In the case of B14, the IC50 in assay [1] was 2200 nM.

B15: insulin-Fc fusion protein of SEQ ID NO: 52 (Fc fusion)
chain: B11 chain with Q13E, Y16A, D28P, P29G, T30G, P34G, R35G, R36G
Consider B15, for which the IC50 in assay [2] was 4720 nM; in assay [1], 1930 nM.
